Reference: article PMC9482650, “Quantitative fragmentomics allow affinity mapping of interactomes” (Nature Communications, 2022)

T1: SNTB1, Q13884
T1 sequence (Q13884 107-205, limits assumed, looked up): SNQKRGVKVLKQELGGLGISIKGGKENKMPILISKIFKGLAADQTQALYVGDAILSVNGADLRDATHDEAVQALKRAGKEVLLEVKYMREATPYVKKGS

T2: PDZD7_3, Q9H5P4
T2 sequence (Q9H5P4 857-944, limits assumed, looked up): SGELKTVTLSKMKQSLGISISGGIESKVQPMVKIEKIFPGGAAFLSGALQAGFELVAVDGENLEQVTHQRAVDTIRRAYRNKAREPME

T3: GRIP1_3, Q9Y3R0
T3 sequence (Q9Y3R0 247-346, limits assumed, looked up): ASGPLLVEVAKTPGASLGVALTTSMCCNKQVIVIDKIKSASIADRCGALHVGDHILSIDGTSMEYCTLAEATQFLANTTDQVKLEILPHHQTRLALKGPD

T4: MPDZ_10, O75970
T4 sequence (O75970 1624-1722, limits assumed, looked up): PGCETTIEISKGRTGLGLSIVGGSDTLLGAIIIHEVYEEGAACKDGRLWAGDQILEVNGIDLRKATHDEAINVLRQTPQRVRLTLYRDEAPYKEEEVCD

T5: TX1BP3, O14907
T5 sequence (O14907 10-122, limits assumed, looked up): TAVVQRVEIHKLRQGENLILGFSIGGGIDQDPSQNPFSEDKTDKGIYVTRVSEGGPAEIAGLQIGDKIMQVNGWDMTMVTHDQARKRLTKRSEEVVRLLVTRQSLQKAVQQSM

T6: SYNJ2BP, P57105
T6 sequence (P57105 8-110, limits assumed, looked up): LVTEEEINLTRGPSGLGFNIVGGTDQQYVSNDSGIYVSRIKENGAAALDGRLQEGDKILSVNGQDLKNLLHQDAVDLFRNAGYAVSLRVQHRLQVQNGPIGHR

T7: GRIP1_7, Q9Y3R0
T7 sequence (Q9Y3R0 999-1096, limits assumed, looked up): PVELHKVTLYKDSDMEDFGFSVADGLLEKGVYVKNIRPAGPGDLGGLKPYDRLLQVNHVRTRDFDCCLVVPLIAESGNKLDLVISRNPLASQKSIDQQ

T8: APBA1_1, Q02410
T8 sequence (Q02410 651-752, limits assumed, looked up): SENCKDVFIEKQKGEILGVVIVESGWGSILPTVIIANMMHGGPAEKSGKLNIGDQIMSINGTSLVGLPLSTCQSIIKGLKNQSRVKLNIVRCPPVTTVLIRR

T9: APBA1_2, Q02410
T9 sequence (Q02410 742-832, limits assumed, looked up): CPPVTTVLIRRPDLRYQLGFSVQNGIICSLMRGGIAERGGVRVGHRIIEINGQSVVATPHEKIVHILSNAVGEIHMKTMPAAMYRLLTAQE

T10: LNX2_3, Q8N448
T10 sequence (Q8N448 463-564, limits assumed, looked up): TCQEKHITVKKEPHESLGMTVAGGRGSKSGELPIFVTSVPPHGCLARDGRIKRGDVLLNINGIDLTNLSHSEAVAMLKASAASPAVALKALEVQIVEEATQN

T11: SHANK1, Q9Y566
T11 sequence (Q9Y566 658-767, limits assumed, looked up): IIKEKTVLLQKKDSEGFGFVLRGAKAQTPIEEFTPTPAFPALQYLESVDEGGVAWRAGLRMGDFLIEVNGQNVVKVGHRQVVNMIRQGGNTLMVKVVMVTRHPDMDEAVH

T12: MPP7, Q5T2T1
T12 sequence (Q5T2T1 134-230, limits assumed, looked up): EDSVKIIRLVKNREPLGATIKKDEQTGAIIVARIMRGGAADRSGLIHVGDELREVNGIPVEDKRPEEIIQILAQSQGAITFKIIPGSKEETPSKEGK

T13: HTRA3, P83110
T13 sequence (P83110 354-453, limits assumed, looked up): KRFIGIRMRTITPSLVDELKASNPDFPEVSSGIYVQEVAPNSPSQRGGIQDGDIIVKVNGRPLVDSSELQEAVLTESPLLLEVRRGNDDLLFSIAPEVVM


Target: PARD3_3, Q8TEW0
Assay: holdup assay
Parameters: key: below the threshold = too weak to quantify, mostly under pKd 3.1 to 4
Conditions: plain residues with an end cap or a label only (N-terminal biotin on a linker: ado-ado)

PARD3_3, Q8TEW0, sequence (Q8TEW0 582-685): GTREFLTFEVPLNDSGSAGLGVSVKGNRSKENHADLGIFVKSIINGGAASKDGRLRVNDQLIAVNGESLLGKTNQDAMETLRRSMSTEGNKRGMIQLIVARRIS

Row | Binder | pKd
1 | QSPPNIYYKV [EFNB3, Q15768] | below the threshold
2 | PAPGQHTTQI [STK16, O75716] | below the threshold

Target: Inadl_1, Q8NI35
Assay: holdup assay
Parameters: key: below the threshold = too weak to quantify, mostly under pKd 3.1 to 4
Conditions: plain residues with an end cap or a label only (N-terminal biotin on a linker: ado-ado)

Inadl_1, Q8NI35, sequence (Q8NI35 113-229): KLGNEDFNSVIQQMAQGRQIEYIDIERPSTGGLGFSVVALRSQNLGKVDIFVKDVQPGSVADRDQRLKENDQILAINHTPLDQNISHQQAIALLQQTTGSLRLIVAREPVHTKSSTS

Row | Binder | pKd
3 | QSPPNIYYKV [EFNB3, Q15768] | 3.99
4 | PAPGQHTTQI [STK16, O75716] | below the threshold

Target: DLG2_2, Q15700
Assay: holdup assay
Parameters: key: below the threshold = too weak to quantify, mostly under pKd 3.1 to 4
Conditions: plain residues with an end cap or a label only (N-terminal biotin on a linker: ado-ado)

DLG2_2, Q15700, sequence (Q15700 189-283): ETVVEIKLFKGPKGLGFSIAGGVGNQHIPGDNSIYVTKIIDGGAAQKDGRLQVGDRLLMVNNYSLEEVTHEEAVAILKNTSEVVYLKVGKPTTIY

Row | Binder | pKd
5 | QSPPNIYYKV [EFNB3, Q15768] | below the threshold
6 | PAPGQHTTQI [STK16, O75716] | 3.79

Target: GIPC2, Q8TF65
Assay: holdup assay
Parameters: key: below the threshold = too weak to quantify, mostly under pKd 3.1 to 4
Conditions: plain residues with an end cap or a label only (N-terminal biotin on a linker: ado-ado)

GIPC2, Q8TF65, sequence (Q8TF65 112-203): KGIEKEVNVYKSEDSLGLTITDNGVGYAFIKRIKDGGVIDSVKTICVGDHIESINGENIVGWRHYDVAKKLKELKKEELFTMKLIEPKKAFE

Row | Binder | pKd
7 | QSPPNIYYKV [EFNB3, Q15768] | below the threshold
8 | PAPGQHTTQI [STK16, O75716] | below the threshold

Target: MAST1, Q9Y2H9
Assay: holdup assay
Parameters: key: below the threshold = too weak to quantify, mostly under pKd 3.1 to 4
Conditions: plain residues with an end cap or a label only (N-terminal biotin on a linker: ado-ado)

MAST1, Q9Y2H9, sequence (Q9Y2H9 962-1065): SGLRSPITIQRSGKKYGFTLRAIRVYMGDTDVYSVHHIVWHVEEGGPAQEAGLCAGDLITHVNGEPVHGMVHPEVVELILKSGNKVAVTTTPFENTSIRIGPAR

Row | Binder | pKd
9 | QSPPNIYYKV [EFNB3, Q15768] | 4.07
10 | PAPGQHTTQI [STK16, O75716] | 4.37

Target: T1, SNTB1, Q13884
Assay: holdup assay
Parameters: key: below the threshold = too weak to quantify, mostly under pKd 3.1 to 4
Conditions: plain residues with an end cap or a label only (N-terminal biotin on a linker: ado-ado)

Row | Binder | pKd
11 | QSPPNIYYKV [EFNB3, Q15768] | below the threshold
12 | PAPGQHTTQI [STK16, O75716] | 3.57

Target: MAGI3_2, Q5TCQ9
Assay: holdup assay
Parameters: key: below the threshold = too weak to quantify, mostly under pKd 3.1 to 4
Conditions: plain residues with an end cap or a label only (N-terminal biotin on a linker: ado-ado)

MAGI3_2, Q5TCQ9, sequence (Q5TCQ9 398-503): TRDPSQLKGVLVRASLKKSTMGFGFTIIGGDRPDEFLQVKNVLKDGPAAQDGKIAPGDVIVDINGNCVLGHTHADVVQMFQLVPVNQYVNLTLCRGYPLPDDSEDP

Row | Binder | pKd
13 | QSPPNIYYKV [EFNB3, Q15768] | below the threshold
14 | PAPGQHTTQI [STK16, O75716] | below the threshold

Target: T2, PDZD7_3, Q9H5P4
Assay: holdup assay
Parameters: key: below the threshold = too weak to quantify, mostly under pKd 3.1 to 4
Conditions: plain residues with an end cap or a label only (N-terminal biotin on a linker: ado-ado)

Row | Binder | pKd
15 | QSPPNIYYKV [EFNB3, Q15768] | below the threshold
16 | PAPGQHTTQI [STK16, O75716] | 5

Target: T3, GRIP1_3, Q9Y3R0
Assay: holdup assay
Parameters: key: below the threshold = too weak to quantify, mostly under pKd 3.1 to 4
Conditions: plain residues with an end cap or a label only (N-terminal biotin on a linker: ado-ado)

Row | Binder | pKd
17 | QSPPNIYYKV [EFNB3, Q15768] | below the threshold
18 | PAPGQHTTQI [STK16, O75716] | below the threshold

Target: GRID2IP_2, A4D2P6
Assay: holdup assay
Parameters: key: below the threshold = too weak to quantify, mostly under pKd 3.1 to 4
Conditions: plain residues with an end cap or a label only (N-terminal biotin on a linker: ado-ado)

GRID2IP_2, A4D2P6, sequence (A4D2P6 272-370): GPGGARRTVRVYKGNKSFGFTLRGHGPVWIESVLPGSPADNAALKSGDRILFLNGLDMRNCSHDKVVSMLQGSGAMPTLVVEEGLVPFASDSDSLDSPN

Row | Binder | pKd
19 | QSPPNIYYKV [EFNB3, Q15768] | below the threshold
20 | PAPGQHTTQI [STK16, O75716] | 3.98

Target: T4, MPDZ_10, O75970
Assay: holdup assay
Parameters: key: below the threshold = too weak to quantify, mostly under pKd 3.1 to 4
Conditions: plain residues with an end cap or a label only (N-terminal biotin on a linker: ado-ado)

Row | Binder | pKd
21 | QSPPNIYYKV [EFNB3, Q15768] | below the threshold
22 | PAPGQHTTQI [STK16, O75716] | below the threshold

Target: T5, TX1BP3, O14907
Assay: holdup assay
Parameters: key: below the threshold = too weak to quantify, mostly under pKd 3.1 to 4
Conditions: plain residues with an end cap or a label only (N-terminal biotin on a linker: ado-ado)

Row | Binder | pKd
23 | QSPPNIYYKV [EFNB3, Q15768] | below the threshold
24 | PAPGQHTTQI [STK16, O75716] | 4.12

Target: FRMPD2_1, Q68DX3
Assay: holdup assay
Parameters: key: below the threshold = too weak to quantify, mostly under pKd 3.1 to 4
Conditions: plain residues with an end cap or a label only (N-terminal biotin on a linker: ado-ado)

FRMPD2_1, Q68DX3, sequence (Q68DX3 770-861): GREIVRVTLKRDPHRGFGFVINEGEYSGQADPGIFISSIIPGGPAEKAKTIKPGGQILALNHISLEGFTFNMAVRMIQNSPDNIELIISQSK

Row | Binder | pKd
25 | QSPPNIYYKV [EFNB3, Q15768] | 3.79
26 | PAPGQHTTQI [STK16, O75716] | below the threshold

Target: T6, SYNJ2BP, P57105
Assay: holdup assay
Parameters: key: below the threshold = too weak to quantify, mostly under pKd 3.1 to 4
Conditions: plain residues with an end cap or a label only (N-terminal biotin on a linker: ado-ado)

Row | Binder | pKd
27 | QSPPNIYYKV [EFNB3, Q15768] | below the threshold
28 | PAPGQHTTQI [STK16, O75716] | 3.51

Target: T7, GRIP1_7, Q9Y3R0
Assay: holdup assay
Parameters: key: below the threshold = too weak to quantify, mostly under pKd 3.1 to 4
Conditions: plain residues with an end cap or a label only (N-terminal biotin on a linker: ado-ado)

Row | Binder | pKd
29 | QSPPNIYYKV [EFNB3, Q15768] | 3.67
30 | PAPGQHTTQI [STK16, O75716] | below the threshold

Target: T8, APBA1_1, Q02410
Assay: holdup assay
Parameters: key: below the threshold = too weak to quantify, mostly under pKd 3.1 to 4
Conditions: plain residues with an end cap or a label only (N-terminal biotin on a linker: ado-ado)

Row | Binder | pKd
31 | QSPPNIYYKV [EFNB3, Q15768] | below the threshold
32 | PAPGQHTTQI [STK16, O75716] | below the threshold

Target: GRID2IP_1, A4D2P6
Assay: holdup assay
Parameters: key: below the threshold = too weak to quantify, mostly under pKd 3.1 to 4
Conditions: plain residues with an end cap or a label only (N-terminal biotin on a linker: ado-ado)

GRID2IP_1, A4D2P6, sequence (A4D2P6 1-87): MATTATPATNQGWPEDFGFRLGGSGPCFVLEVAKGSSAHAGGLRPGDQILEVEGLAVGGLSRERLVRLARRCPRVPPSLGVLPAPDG

Row | Binder | pKd
33 | QSPPNIYYKV [EFNB3, Q15768] | below the threshold
34 | PAPGQHTTQI [STK16, O75716] | below the threshold

Target: T9, APBA1_2, Q02410
Assay: holdup assay
Parameters: key: below the threshold = too weak to quantify, mostly under pKd 3.1 to 4
Conditions: plain residues with an end cap or a label only (N-terminal biotin on a linker: ado-ado)

Row | Binder | pKd
35 | QSPPNIYYKV [EFNB3, Q15768] | 3.47
36 | PAPGQHTTQI [STK16, O75716] | below the threshold

Target: T10, LNX2_3, Q8N448
Assay: holdup assay
Parameters: key: below the threshold = too weak to quantify, mostly under pKd 3.1 to 4
Conditions: plain residues with an end cap or a label only (N-terminal biotin on a linker: ado-ado)

Row | Binder | pKd
37 | QSPPNIYYKV [EFNB3, Q15768] | below the threshold
38 | PAPGQHTTQI [STK16, O75716] | below the threshold

Target: T11, SHANK1, Q9Y566
Assay: holdup assay
Parameters: key: below the threshold = too weak to quantify, mostly under pKd 3.1 to 4
Conditions: plain residues with an end cap or a label only (N-terminal biotin on a linker: ado-ado)

Row | Binder | pKd
39 | QSPPNIYYKV [EFNB3, Q15768] | below the threshold
40 | PAPGQHTTQI [STK16, O75716] | 3.75

Target: NHERF4_4, Q86UT5
Assay: holdup assay
Parameters: key: below the threshold = too weak to quantify, mostly under pKd 3.1 to 4
Conditions: plain residues with an end cap or a label only (N-terminal biotin on a linker: ado-ado)

NHERF4_4, Q86UT5, sequence (Q86UT5 464-550): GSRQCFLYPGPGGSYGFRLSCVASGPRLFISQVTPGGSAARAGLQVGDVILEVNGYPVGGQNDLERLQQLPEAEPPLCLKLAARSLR

Row | Binder | pKd
41 | QSPPNIYYKV [EFNB3, Q15768] | below the threshold
42 | PAPGQHTTQI [STK16, O75716] | below the threshold

Target: T12, MPP7, Q5T2T1
Assay: holdup assay
Parameters: key: below the threshold = too weak to quantify, mostly under pKd 3.1 to 4
Conditions: plain residues with an end cap or a label only (N-terminal biotin on a linker: ado-ado)

Row | Binder | pKd
43 | QSPPNIYYKV [EFNB3, Q15768] | 3.66
44 | PAPGQHTTQI [STK16, O75716] | below the threshold

Target: T13, HTRA3, P83110
Assay: holdup assay
Parameters: key: below the threshold = too weak to quantify, mostly under pKd 3.1 to 4
Conditions: plain residues with an end cap or a label only (N-terminal biotin on a linker: ado-ado)

Row | Binder | pKd
45 | QSPPNIYYKV [EFNB3, Q15768] | 3.53
46 | PAPGQHTTQI [STK16, O75716] | below the threshold
